Measured values from patent CN114426577A (CHINESE DISEASE PREVENTION AND CONTROL CENTER FOR …, dated 2022).

Columns and labels:
[1] = molecular target: SARS-Cov-2 Omicron变异株的生物素化RBD(South Africa/CERI-KRISP-K032195/2021) (SARS-CoV-2 Omicron variant, UniProt P0DTC2 319-541)
[2] = molecular target: SARS-CoV-2 S蛋白 (Delta变异株, 假病毒) (SARS-CoV-2 Delta variant, UniProt P0DTC2 14-1273); assay: cell-based or functional assay
[3] = molecular target: SARS-CoV-2 S蛋白 (Omicron变异株, 假病毒) (SARS-CoV-2 Omicron variant, UniProt P0DTC2 14-1273); assay: cell-based or functional assay

B1: SWB8 (antibody, V domains shown)
VH: EVQLVESGGGLVQPGGSLRLSCAASGFTIRSYEMNWVRQAPGKGLEWVSYISSSGTTIYYADSVKGRFTISRDTAKNSLYLQMNSLRAEDTAVYYCAREGDYPSAEYFHHWGQGTLVTVSS
VL: DIVMTQSSVSLAVSLGERATINCKSSQSVLYSSTNRSYLAWYQQKPGQSPKLLIYWASTRESGVPDRFSGSGSGTDFTLTISSLQAEDVAVYYCQQYYSTRRTFGQGTKLEIKR
In the case of B1, the Kd [1] is reported as less than 1 pM, the “假病毒中和能力(IC50)” value [2] is reported as 0.018 µg/mL and the “假病毒中和能力(IC50)” value [3] is reported as 0.032 µg/mL.

B2: LHD2 (antibody, V domains shown)
VH: QMQLVQSGPEVKKPGTSLKVSCKASGFAFTTSAVQWVRQARGQPLEWIGWIAVGSGKADYAQRFQERVTISRDMSTTTAYMELSSLSSEDTAVYFCAAPFCTRTTCLDGFDIWGQGTMVTVSS
VL: EIVLTQSPVTLSLSPGERATLSCRAGQSVSRNYLGWYQQKPGQAPRLLIYAASSRATGIPDRFSGRGSGTDFTLTISRLEPEDFAVYYCQQYGTSPWTFGQGTKVEIKV
B2 was tested, and the Kd [1] was less than 1 pM, the “假病毒中和能力(IC50)” value [2] was 0.005 µg/mL and the “假病毒中和能力(IC50)” value [3] was 0.045 µg/mL.

B3: LHD7 (antibody, V domains shown)
VH: QMQLVQSGPEVKKPGTSVKVSCKASGFTFITAAVQWVRQARGQRLEWIGWIAVGSGKTDYAQKFQERVTITRDISTSTAYMEVKSLRSEDTALYYCAAPQCNRTTCLDGFDIWGQGTKVIVSS
VL: EIVLTQSPVTLSLSPGERATLSCRASQSVSRSYLGWYQQKPGQAPRLLIYGASSRATGIPDRFRGSGSGTDFTLTISRLEPEDFAVYYCQQYGTSPWTFGQGTKVEIKV
For B3, the Kd [1] was less than 1 pM, the “假病毒中和能力(IC50)” value [2] was 0.008 µg/mL and the “假病毒中和能力(IC50)” value [3] was 0.025 µg/mL.

B4: LHC11 (antibody, V domains shown)
VH: EVQLVESGGGLIQPGGSLKLSCAATEIIVSRNYMTWVRQAPGKGLEWVSIIYPGGSSFYAESVKGRFTISRDEPKNTLFLQMNSLRVEDTAVYYCARGYGDYYFDFWGQGTLVTVSS
VL: EIVLTQSPVTLSLSPGERATLSCRASQSVSSSYLAWYQQKPGQAPRLLIYGASSRATGIPDRFSGSGSGTDFTLTISRLEPEDFAVYYCQQWLTFGGGTKVEIKV
With B4 the Kd [1] was 960 pM, the “假病毒中和能力(IC50)” value [2] was 0.027 µg/mL and the “假病毒中和能力(IC50)” value [3] was 0.024 µg/mL.
